Source: the supplement of paper PMC6757056
± gives the standard deviation of the averaged measurements.

B1: library; a variant is named by its letters at N, in order (parent)
chain: GCUGUCACCGAGAAACUGUGAAGUAUAUCUUAAACCUGGGCACUUAAAAGAUAUAUGGAGUUAGUAGUGCAACCUGCUCGGUCUGAUGAGUCCNNNNNNGGACGAAACAGC

How the values were obtained:
[1] = variants of: B1; assay: FACS-Seq fitted mean relative fluorescence mCherry/BFP without ligand (log10 relative fluorescence); HEK293T; ligand: cyclic di-GMP (c-di-GMP-II aptamer); higher = higher reporter protein expression; details: ligand present: no
Summary of the method: (§1)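 HEK293T libraries were lentivirally transduced with an mCherry reporter carrying the ribozyme switch and an EF1α-BFP marker, enriched, and incubated for 48 h with or without ligand before sorting into 6 bins by mCherry/BFP. Genomic DNA from each bin was PCR-amplified, barcoded and sequenced on MiSeq. Fluorescence is the fitted normal mean of the bin counts. The fit used log10(mCherry/BFP), and means were scaled to five spiked-in control ribozymes.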

[2] = variants of: B1; assay: normalized RNA/DNA level without ligand (relative to sTRSVctl = 100) (log10 (% of sTRSVctl)); HEK293T; ligand: cyclic di-GMP (c-di-GMP-II aptamer); higher = less ribozyme self-cleavage, higher mRNA level; details: reporter: mCherry (pCS4076), ligand present: no
Summary of the method: (§2)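 RNA level was computed as RNA reads over DNA reads divided by a spiked-in non-cleaving sequence or by the top sequences, then scaled and log-transformed. Scaling was ×100 with log10, the top group was 25 sequences, and the threshold was ≥100 DNA reads. The reads came from HEK293T cells transfected at 4 µg per 6-well well with ribozyme switch library plasmids (mCherry, or eGFP in some ligand experiments). Total RNA was extracted with EDTA 72 h after transfection, with any ligand added 1 h before it.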

[3] = variants of: B1; assay: FACS-Seq fitted mean relative fluorescence mCherry/BFP with ligand (log10 relative fluorescence); HEK293T; ligand: cyclic di-GMP (c-di-GMP-II aptamer); ligand concentration (+) FACS-Seq: 1 mM; higher = higher reporter protein expression; details: ligand present: yes
Summary of the method: as §1

[4] = variants of: B1; assay: normalized RNA/DNA level with ligand (relative to sTRSVctl = 100) (log10 (% of sTRSVctl)); HEK293T; ligand: cyclic di-GMP (c-di-GMP-II aptamer); ligand concentration (+) RNA-Seq: 1 mM; higher = less ribozyme self-cleavage, higher mRNA level; details: reporter: mCherry (pCS4076), ligand present: yes
Summary of the method: as §2

Variant | FACS-Seq fitted mean (log10) [1] | normalized RNA/DNA level without ligand (log10) [2] | FACS-Seq fitted mean (log10) [3] | normalized RNA/DNA level with ligand (log10) [4]
UUACUA | -0.111 ± 0.12 | 1.64 ± 0.029 | 0.155 ± 0.095 | 1.77 ± 0.13
CUCGCU | -0.0213 ± 0.09 | 1.8 ± 0.047 | 0.226 ± 0.12 | 1.9 ± 0.079
AUAAAG | -0.485 ± 0.024 | 1.56 ± 0.038 | -0.249 ± 0.071 | 1.73 ± 0.14
AGUAGA | -0.549 ± 0.05 | 1.36 ± 0.12 | -0.22 ± 0.075 | 1.56 ± 0.086
AGUAGU | 0.132 ± 0.03 | 1.64 ± 0.066 | 0.367 ± 0.029 | 1.78 ± 0.13
AGUAGG | -1.02 ± 0.098 | 1.63 ± 0.097 | -0.997 ± 0.068 | 1.75 ± 0.049
UUAUAU | -0.127 ± 0.066 | 1.68 ± 0.0031 | 0.0702 ± 0.1 | 1.8 ± 0.081
AGUAAU | 0.353 ± 0.055 | 1.7 ± 0.006 | 0.4462 ± 0.0042 | 1.83 ± 0.097
AGUAAG | -0.172 ± 0.14 | 1.53 ± 0.11 | 0.221 ± 0.032 | 1.7 ± 0.062
AGUAAA | -0.319 ± 0.071 | 1.41 ± 0.038 | 0.121 ± 0.012 | 1.62 ± 0.1
AGUAAC | -0.0857 ± 0.11 | 1.595 ± 0.012 | 0.271 ± 0.023 | 1.79 ± 0.076
UGUAUA | -0.0844 ± 0.055 | 1.73 ± 0.083 | 0.221 ± 0.027 | 1.87 ± 0.073
AUAACG | -0.0695 ± 0.081 | 1.58 ± 0.027 | 0.0722 ± 0.12 | 1.76 ± 0.12
CUCAUA | -0.575 ± 0.039 | 1.43 ± 0.079 | -0.298 ± 0.012 | 1.65 ± 0.14
AUAGAC | -0.109 ± 0.028 | 1.61 ± 0.05 | 0.0802 ± 0.041 | 1.76 ± 0.091
AUAGAA | -0.406 ± 0.06 | 1.39 ± 0.077 | -0.217 ± 0.058 | 1.61 ± 0.093
GUAGAG | 0.0274 ± 0.11 | 1.47 ± 0.073 | 0.252 ± 0.077 | 1.66 ± 0.12
GUAGAU | -0.404 ± 0.035 | 1.55 ± 0.057 | -0.145 ± 0.055 | 1.72 ± 0.08
GUAGAA | -0.503 ± 0.021 | 1.39 ± 0.081 | -0.1892 ± 0.0011 | 1.63 ± 0.1
UUCGUG | -0.959 ± 0.031 | 1.71 ± 0.022 | -0.86 ± 0.094 | 1.86 ± 0.1
CGGUGU | -0.862 ± 0.11 | 1.68 ± 0.02 | -0.65 ± 0.12 | 1.88 ± 0.14
CUAUAA | -0.473 ± 0.065 | 1.41 ± 0.079 | -0.255 ± 0.021 | 1.6 ± 0.11
CUACAA | -0.602 ± 0.069 | 1.48 ± 0.11 | -0.356 ± 0.025 | 1.68 ± 0.067
CUACAC | -0.167 ± 0.016 | 1.699 ± 0.0052 | 0.0624 ± 0.12 | 1.83 ± 0.11

Variant | FACS-Seq fitted mean (log10) [1] | normalized RNA/DNA level without ligand (log10) [2] | FACS-Seq fitted mean (log10) [3] | normalized RNA/DNA level with ligand (log10) [4]
UUAUCC | -0.109 ± 0.15 | 1.76 ± 0.023 | 0.218 ± 0.082 | 1.86 ± 0.084
CGUGCA | -0.119 ± 0.16 | 1.68 ± 0.078 | 0.0822 ± 0.039 | 1.79 ± 0.1
CGUGCG | -0.833 ± 0.015 | 1.8 ± 0.02 | -0.561 ± 0.012 | 1.83 ± 0.11
GGUUCC | 0.28 ± 0.17 | 1.8648 ± 0.0011 | 0.396 ± 0.056 | 1.96 ± 0.085
UGUGGG | -0.327 ± 0.023 | 1.74 ± 0.03 | -0.0766 ± 0.022 | 1.86 ± 0.12
AGUGCC | 0.324 ± 0.079 | 1.82 ± 0.11 | 0.275 ± 0.078 | 1.92 ± 0.15
AGUGCA | -0.382 ± 0.034 | 1.61 ± 0.046 | -0.043 ± 0.018 | 1.79 ± 0.096
GUAGGA | -0.422 ± 0.02 | 1.43 ± 0.081 | -0.137 ± 0.14 | 1.64 ± 0.11
UUCACU | -0.67 ± 0.15 | 1.73 ± 0.018 | -0.577 ± 0.18 | 1.85 ± 0.1
GUAAAA | -0.251 ± 0.15 | 1.57 ± 0.024 | 0.00851 ± 0.01 | 1.73 ± 0.094
GUAAAU | -0.979 ± 0.044 | 1.6 ± 0.051 | -0.774 ± 0.011 | 1.76 ± 0.084
GUAAAG | -0.104 ± 0.13 | 1.55 ± 0.078 | 0.22888 ± 7.2e-05 | 1.74 ± 0.065
GUAUAG | -1.32 ± 0.018 | 1.56 ± 0.12 | -1.05 ± 0.12 | 1.74 ± 0.063
UUCAAU | -0.187 ± 0.012 | 1.71 ± 0.03 | 0.267 ± 0.037 | 1.82 ± 0.14
UUCAAC | -0.163 ± 0.071 | 1.695 ± 0.004 | 0.153 ± 0.024 | 1.82 ± 0.12
GUACGA | -0.395 ± 0.055 | 1.43 ± 0.046 | -0.0985 ± 0.03 | 1.64 ± 0.077
GUACGG | 0.00232 ± 0.14 | 1.62 ± 0.053 | 0.333 ± 0.011 | 1.77 ± 0.059
GUACGC | -0.788 ± 0.17 | 1.77 ± 0.056 | -0.516 ± 0.067 | 1.88 ± 0.091
CGUGAA | -0.546 ± 0.02 | 1.24 ± 0.057 | -0.396 ± 0.0075 | 1.35 ± 0.099
CGUGAC | -0.217 ± 0.012 | 1.58 ± 0.081 | 0.0888 ± 0.11 | 1.74 ± 0.092
CGUGAU | -0.47 ± 0.026 | 1.45 ± 0.057 | -0.173 ± 0.018 | 1.69 ± 0.07
GUCCAA | 0.102 ± 0.033 | 1.57 ± 0.052 | 0.317 ± 0.11 | 1.74 ± 0.12
AUCGGA | -0.605 ± 0.038 | 1.53 ± 0.043 | -0.31 ± 0.055 | 1.7 ± 0.086
UUAGUG | -0.38 ± 0.014 | 1.625 ± 0.0063 | -0.0431 ± 0.00068 | 1.81 ± 0.091

Variant | FACS-Seq fitted mean (log10) [1] | normalized RNA/DNA level without ligand (log10) [2] | FACS-Seq fitted mean (log10) [3] | normalized RNA/DNA level with ligand (log10) [4]
GUACAA | -0.163 ± 0.036 | 1.5 ± 0.065 | 0.191 ± 0.07 | 1.68 ± 0.061
UGUAAA | 0.0683 ± 0.13 | 1.72 ± 0.019 | 0.3702 ± 0.0013 | 1.85 ± 0.086
CUAAAA | -0.3961 ± 0.0027 | 1.35 ± 0.057 | -0.114 ± 0.1 | 1.61 ± 0.075
CUAAAU | -0.443 ± 0.034 | 1.5 ± 0.1 | -0.0872 ± 0.068 | 1.69 ± 0.044
GUAGUA | -0.69 ± 0.1 | 1.663 ± 0.0053 | -0.47 ± 0.075 | 1.74 ± 0.099
CGUUAU | -0.444 ± 0.047 | 1.42 ± 0.13 | -0.148 ± 0.06 | 1.61 ± 0.081
CGUUAA | -0.684 ± 0.057 | 1.22 ± 0.036 | -0.425 ± 0.019 | 1.4 ± 0.14
GUAUUU | -0.574 ± 0.0067 | 1.686 ± 0.0056 | -0.186 ± 0.035 | 1.82 ± 0.085
GUAUUG | -0.534 ± 0.043 | 1.53 ± 0.044 | -0.274 ± 0.037 | 1.71 ± 0.078
CGUACA | -0.654 ± 0.072 | 1.32 ± 0.032 | -0.354 ± 0.046 | 1.53 ± 0.12
CGUACU | -0.584 ± 0.039 | 1.43 ± 0.087 | -0.327 ± 0.022 | 1.66 ± 0.12
CUAUCC | -0.679 ± 0.11 | 1.77 ± 0.028 | -0.371 ± 0.13 | 1.88 ± 0.13
CUAUCU | -0.234 ± 0.066 | 1.62 ± 0.021 | -0.142 ± 0.059 | 1.76 ± 0.11
CGUAUA | -0.76 ± 0.11 | 1.3 ± 0.1 | -0.4664 ± 0.0033 | 1.45 ± 0.13
CGUCGA | -0.179 ± 0.073 | 1.58 ± 0.049 | 0.0661 ± 0.0086 | 1.77 ± 0.093
CUCAGA | -0.23 ± 0.18 | 1.64 ± 0.041 | 0.0277 ± 0.043 | 1.78 ± 0.064
UGUCCU | -0.0961 ± 0.059 | 1.7541 ± 0.0017 | 0.158 ± 0.027 | 1.89 ± 0.1
AGUGUC | -0.2695 ± 0.0013 | 1.62 ± 0.071 | 0.0884 ± 0.21 | 1.76 ± 0.052
UUAAAU | -0.418 ± 0.091 | 1.711 ± 0.0058 | -0.275 ± 0.024 | 1.86 ± 0.11
UUCCGU | 0.0201 ± 0.13 | 1.7 ± 0.02 | 0.296 ± 0.053 | 1.83 ± 0.08
GUAAGA | -0.617 ± 0.027 | 1.46 ± 0.061 | -0.308 ± 0.026 | 1.61 ± 0.13
GUAAGG | -0.295 ± 0.022 | 1.59 ± 0.078 | 0.0239 ± 0.038 | 1.74 ± 0.067
CUAGAA | -0.5 ± 0.054 | 1.38 ± 0.091 | -0.134 ± 0.032 | 1.6 ± 0.1
